From paper doi:10.1101/376806

Molecular target: Nucleosome: Xenopus laevis histone octamer with Cy3-labeled H2A T120C on Widom 601 DNA (Xenopus laevis)
Assay: single-molecule fluorescence co-localisation with photobleaching step counting

Alexa647-labeled Chd1p (from UniProt P32657 1-1468) (enzyme)
fraction of nucleosomes with one Chd1p: 47.8% | fraction of nucleosomes with three Chd1ps: 21.7% | fraction of nucleosomes with two Chd1ps: 30.4%
